In the DeepSol protein solubility set:

test: soluble on expression in E. coli; label from the status in PepcDB or PDB records

Sequence	soluble on expression in E. coli
MSTNALQPKTIGGNNNILEVIRLKRADLRKSDRKVAELVLADPKRVINATIAEAAEWAEVSQPTVIRFCASIGCQGYQDFKLRLAQSLALGMSATHSVIDADDTPAKVSEKIFDYTITSLDWVRNHLDPVQVDRAVDALAKANRIEFFGFGASGIVARDAQQKFPLFGVPCGAETDAHQQIMVVSMLKPGDVAVVISNTGATLAIIETARRARESGCQVIGIVGSDGPLVEFCDIVLMVETLENTNIYTPTISRIAALTVVDILSTSVALRRGAEHVDLFTGMKRNLRYLRTSTET	not soluble
MHKSNNKIRQRIIIKLSGAGLTKENSQPFSNDFFETIINQLKVLKESYQVGIVIGGGNIIRGNNCQEFNIAEYHGHQLGIIATVVNGYFLKAKLDAHNLKSALLSAISCPSLAVQILSQQTIDKAFEENDFVIFSGGTGNPYFSTDTALALRAVQTKAVAILIGKNGVDGVYTADPKKDKNATFLPTLNYDHAIKNDLKIMDITAFTMCKENNLKIIIFNINAENALLDALNKKGRFTIIENNLEHHHHHH	soluble
MCMPRYTQPKKTWFYPVNFKIKAVELSLRNDMLSKDVAQALDIHPLMLSRWRKEYREGKFKKNQHYQSNSELMSKIPTKKELNKIKQLQKENDRLKMENDLLKKWQRYLAEVHQSDLDSSKNTKKPLEHHHHHH	soluble
MGPEGALPKASEATVCANNSKVSSPGEKVVLWTREADRVILTMCQEQGAQPHTFSVISQQLGNKTPVEVSHRFRELMQLFHTACEASSEDEDDATSTSNADQLSDHGDLLSEEELDE	soluble
NLQPLETTITDVERFKDTVTLELSCPSCDKRFPFGGIVSSNYYRVSYNGLQCKHCEQLFTPLQLTSQIEHSIRAHISLYYAGWLQCDDSTCGIVTRQVSVFGKRCLNDGCTGVMRYKYSDKQLYNQLLYFDSLFDCEKNKKQELKPIYLPDDLDYPKEQLTESSIKALTEQNRELMETGRSVVQKYLNDCGRRYVDMTSIFDFMLN	soluble
MDVRPYEGGRFEKIGSEEAHTIETFERRIHGTPHSEPQRQVSSKQYTERRTYGRDENGEIVVKIEKNPSEPVRPASPVRPVTPVGGENELSRHLLQPIQPLHIPRIDIQPANSSRHASPRHKLQYDEVSPRSGSINMLSPRSGHSASSRSGAGSRQSNVSVNSANVPLKKVTKKSRFVSIHDGRPVSPYTETVSFEVAIPFQPDRYSSASARSFSSSPHVSRRPSECAYLMENPLYQD	not soluble
MGSDKIHHHHHHMDVNEIRENAKKLMELMMLDKPFVAVKLAKSKEEIPEGYETLDEEKRHCEMIQMARLERKKLYATVDKHLCKGGAYAMGVFRNPPEPLATGKLYVKLGNFKDEEAAKKTVDAIPKVEEEIYATVYAPLDETDFIPDSIVFIGEPLYALRLVQAILYHKGGRFQADFSGIQSLCADAVAAVYTRKAPNMTLGCNGSRKYAGIKPEEVVVAFPPEKLKDIVEAIEHFRQVWTCGH	not soluble
MPPYFSPKSEAPICGYCQLTFSQTGSMTRHRDRLHTKNHTCLICVSNCEGAPILGESIKKHLQHAHGYVDVQSCSCCHWIFENKIQLRTHLDAMKATGQPGDEVVLAKGTFAPGTLSQAAILQSKAYSANRQQKCQQSLKVDSGGFNDLSETQLKFILDNYSQIVGELESPNPKISGCRKRKCGMTIQHVLRDDDFKKIELC	not soluble
MGSDKIHHHHHHMMTQVPDTPQALYRALPSMDSLLADAVLAPLLQRYGKAAVKAALDSQLRTARELIAQERRLPAWCANPSLLNGYLVDQLSKDYSHSLKPVWNLTGTILHTNLGRAQQSEAAIRAVTSVMRYPTPLEFELAAGERGHRDNAISGLIQRLTGAEACCVVNNNAAAVLLMLSAVAAGKEVIVSRGELVEIGGAFRIPDIMRQAGCTLVEVGSTNRTHLKDYEQAITENTAAIMKVHTSNYHISGFTAAVEEARLGQLCRERGILLISDLGSGSLTDLRRFGLKQEPTPQAMLADGVDLVSFSGDKLLGGPQSGLIVGKQALINKLQSHPLKRALRCDKLILAALEATLIHYLNPETLDKELPIMAKFARSQAELRQIGERLQQALAPLFTPSYGLELVECQTQVGSGSQPDTFLPSIGLCFNAQEGGSLTLLEQHFKQAQRPVIGRMTQDQLRLDLRGIDDEAELLAELSTLGVQL	not soluble
MSLKTMKFILACVLLLSPLLCQAQKNLFNKYNDMKGVSSVYISKAMMELNPNLFMKDLYIGKVAEHLNSVQVLSTHDNKVREEMAKDIRSLVQSSKYELLMKQKSTVSGSEVYVNRKGSKVKELIMVMNGASSLKFVYMEGDMTTDDIKKLMLYQSTSQNEGHHHHHH	not soluble
MDWDLITERNIQLFIQLAGLAERPLATNMFWRQGQYETYLNYHNGRIHLCQILKQTFLDEELLFKALANWKPAAFQGIPQRLFLLRDGLAMSCSPPLSSSAELWLRLHHRQIKFLESQCVHG	not soluble
MKKTDTLPATLSALIQEYSIAEGIQMAEQQVRENPAKALCRHSLFQLLCVAGDWSRALHQLQLCARMEANYTQEARLYRELVRCEMFRHTVFQGEQRPGFLLPQPVWVESLLAALACHDDTGEVDKHRNTALEAITDTGGQWNGGAFDWASDSDSRLGPVLELVTGGVYIWLPFSQIRSLESPQPTRLTDLLWKPVNITLVNGDTHGAWLFTRYSGSESASDALRLCRETAWQDGPGETTVRALGQKVWLTSHGDISLLDMAHCTFHAQENDGA	not soluble
MGSDKIHHHHHHDETVYDKLPADDFGQSTAELNALIGNSHNTMKKFWTEYMHLSECSGSMAVTPTRRGGDWYDGGQYREIYMHTWTSQTSRVKSAWKAATEAIGTCNEAIRKLQNSEILTEEEKAQDVADLRGVRAFWIYVMMDYWGNIPLLTEFHPTDKVFPGNSSRQEVFDWLIQEVEEIKDICPPATTENYGSFTQGAAYSLLAKLYLNAEAWGVTFSGNAYQKVIDNCDKVMAMGYILEPNWKDNFSVTNENSKEAILAATFSSSDTGNDGNVKNELHNNTLHYKDYLSLGITASGTWNGICAQPEYVRLFDEEDARLDGTFLTGLMIDKSTGKPIMTDHNNELNHTIDVNMIPGMEYDGTNWSAVEQHDGARCFKWEFASDLTSSMGNDFHIFRLADIYLMKAEALLRGGGSVSEATALVNTIRERGYGNSDHNYATVTLKEVQLERRLELAWEVYSRQDDIRFGCFTTGMWPQSNCERKADDYLKLLPVSQDAWQVNPNLKQNPGYAAFSK	not soluble
ADERLQFTATTLSGAPFDGASLQGKPAVLWFWTPWCPFCNAEAPSLSQVAAANPAVTFVGIATRADVGAMQSFVSKYNLNFTNLNDADGVIWARYNVPWQPAFVFYRADGTSTFVNNPTAAMSQDELSGRVAALTS	soluble
MSLVSYVEVIKNGETISSCFQPFQKNENYGTITSANEQITPVIFHNLIMDMVLPKVVPIKGNKVTKMSMNLIDGFDCFYSTDDHDPKTVYVCFTLVDMPKILPIRILSGLQEYESNATNELLSSHVGQILDSFHEELVEYRNQTLNSSGNGQSSNGNGQNTISDIGDATEDQIKDVIQIMNDNIDKFLERQERVSLLVDKTSQLNSSSNKFRRKAVNIKEIMWWQKVKNITLLTFTIILEGHHHHHH	soluble
MAHHHHHHMCLSNLSYFFGAFEAVEPARSENDGGYASDWLSTLYSSLGLVLAHYLFEDNVEATVEATRILGNISYTNAGRDWMEANHCDEVTVLFLGHEDLRVVYNCCGVLLNLTAASPCRVVQDPELLQTMLSYTSRYTDQDRVEAVTALEEARLRQEQQELQQQRRGGDMKELVSEASSHVAQISDIVEKLLLNVHGVLHASAI	not soluble
MKTLHLTFIAKSSKRSHFWLELVWLNNQKKILFCGAGHCKMSPHIIATVTIDDEHHHHHHRSNENYSPSSQDMDSPKPKGRILYCRKCEGHGEKVILKNHSPQCPYILCNCKSCEKLNYKRLKSFNKRNKEKIELAAALNAKRHAPESGSSVDDEEGFSRRSSFCSKTSTPDMDSETRTSSTTPITRSNSTMPTANGLEGRSGSLGHMTVMSYDIWKAKCASERKRLEEERLTKPELFTRSPSPGPMRKRAHTFVAPPTIHTPDIPVVAAKKMSLDEKVKGKFITLPTIPAMRIFVNEEDEDVKPVTQMQLAQPIALTPSPQMSLASTLAQIPMSTPVCMPSMITPTSFLDIPSTSSPMLPFQISTTTSPMLQRQTPILTPQMSPFKPVGVATPQPPALSNLSAGQELSSFILHSVVLQAQQAQQKTAQQLIPTSMPSELESTLSLLRLQQSSLGDLIKLSGIQLPTLPTTQPMLTPQMPTLPMMQKALPTVLPGSFQPFLQPTLFTNPV	not soluble
MPILIRNIVLAPGEGDDVLGTRVAERFGVPERDIQSLHLVRKSIDARRKPRVIIVCTVQCRLLDEAGFLVRHGHDPDVKAVKEEPQPVFPRLAGGGRIVIVGMGPAGLFAALRLAEYGLAPTILERGRPVEERTRDVQAFWSLGQLDTESNVQFGEGGAGTFSDGKLTTRVNDSRIGYVLQKFVDFGASPEILHLAKPHVGTDQLRRVVAGIRQGLLAAGCDIRFRSRVTDIVSREGRVGTVIVNGTDEIAADALVLAPGHSARDTYEMLARRGVHLQAKPFAMGVRVEHPQELINGIQYGKGHHPALPPADYALAHNDRRTGRSAYSFCMCPGGVVVAGSSEEGGVVTNGMSAHLRNTPFANSALVVTVGPDDFGSSSPLAGVEFQRHWERRAFEAGGGGYRAPAQNLLSFLGMKGGKGVSSSYRPRVTETDLSRVLPAAVTGTLREALPTFDRRMRGFVTAEATLTGVETRTSAPVRIVRGEDCQSVSLQGLYPTGEGAGYAGGIMSAALDGIRVADIIAGKMTAETRSAILEHHHHHH	not soluble
NDTVLIAGAGHAGFQVAVSLRQAKYPGRIALINDEKHLPYQRPPLSKAYLKSGGDPNSLMFRPEKFFQDQAIELISDRMVSIDREGRKLLLASGTAIEYGHLVLATGARNRMLDVPNASLPDVLYLRTLDESEVLRQRMPDKKHVVVIGAGFIGLEFAATARAKGLEVDVVELAPRVMARVVTPEISSYFHDRHSGAGIRMHYGVRATEIAAEGDRVTGVVLSDGNTLPCDLVVVGVGVIPNVEIAAAAGLPTAAGIIVDQQLLTSDPHISAIGDCALFESVRFGETMRVESVQNATDQARCVAARLTGDAKPYDGYPWFWSDQGDDKLQIVGLTAGFDQVVIRGSVAERSFSAFCYKAGKLIGIESVNRAADHVFGRKILPLDKSVTPEQAADLSFDLKKAAA	soluble
MGSDKIHHHHHHDANGVKIGVITDMSGSYADLSGKGSVLAAQMAVEEFGGKALGKPVTVLSADHQNKADIASSLARRWFDTDGVDMVIDFPNSSTALAVQEVAKQKQKIDIVSTGGAMALTNQNCSPTGFHWAWDTYSVSYPLVKRMIDQGRNSWYYITVDYAFGQSLEADFRKAVDVSGGKNVGSTKHPLNASDFSSPVVAASASKANVVVLANAGNDMINGVKAAGEFGLVKAGQTVITPSTFITDIKSLGLNTAQGLTYVDPFRLDLDEKSKDFVERYYKRHKAYPTHGQIGVYSGVLHYLKAVEAAKTVDGPAVADKMRALPVNDAFVHNGKVRADGRMVHDMYLAQAKTPAESKGPWDLVKYIATIPGDEAFRPLSASECALVKK	not soluble
GMTLAALCQGVLERLDPRQPGRQLVALSGAPGSGKSTLSNPLAAALSAQGLPAEVVPMDGFHLDNRLLEPRGLLPRKGAPETFDFEGFQRLCHALKHQERVIYPLFDRARDIAIAGAAEVGPECRVAIIEGNYLLFDAPGWRDLTAIWDVSIRLEVPMADLEARLVQRWLDHGLNHDAAVARAQGNDLANARAIEAARLPADLTWPQA	soluble
MKNWIVGMVALVTMVPVMAATPWQKITHPVAGSPQSIGGFANGCVIGAQPLPLESADYQVMRSDQRRYFGHPDLLNFIHRLSAQTHQQQLGTVLIGDMAMPAGGRFSSGHASHQSGLDVDIWLQLPKQRWSQQQLLKPQPIDLVAVDGKRVIPALWQPQIESLIKLAAKDNDVTRIFVNPAIKKQLCLDAGADRQWLHKVRPWFAHRAHMHVRLRCPANSLECVDQDTPPPGDGCGAELESWFQPPPPSAKPGKTLPPPLPPSCQALLDNHFATE	not soluble
